Data: US7482329B2, “Single domain TDF-related compounds and analogs thereof” (Thrasos Therapeutics, priority 2002, dated 2009)
“Also recorded” adds a separate entry of the source. Where a SMILES comes first, the peptide text is derived from it.

Key:
[1] = test system: ICAM-1 in HK2 human transformed kidney proximal tubule cells; assay: ICAM-1 level in HK-2 cell medium after TNF-alpha stimulation (ELISA); assay type: cell-based; conditions: FIG. 7; for effect on level of ICAM-1 in HK2 cell medium: after TNF-alpha inflammatory stimulation
Method: The immortalized PTEC-derived HK-2 (Human Kidney-2) cells (ATCC number CRL-2190) were grown in serum-free keratinocyte medium (GIBCO number 17005-042) supplemented with epidermal growth factor (EGF: 5 ng/mL) and bovine pituitary extract (40 ug/mL) for 48 hours as described previously (Ryan et al (1994) Kidney International 45:48-57). Cells were transferred to 24-well plates at a density of 3×10^5 cells per well. After 24 hours, cells were incubated with fresh medium containing TNF-alpha (5 ng/mL) for 20 hours. Controls received medium alone. Then cells were washed twice with fresh culture medium and further incubated with culture medium alone (medium control, and TNF control wells) or TDF-1 at three different concentrations (40, 200 or 1000 ng/mL) or TDFRP compounds at three different concentrations (4, 20 or 100 uM) for sixty hours. During incubation, cells were kept in a 5% CO2 humid atmosphere at 37° C. At the end of the incubation, the media were removed and stored frozen until assayed. The concentrations of IL-6 and sICAM-in culture supernatants were measured by specific ELISA.
Dilute the capture antibody to the working concentration in PBS, pH 7.4 without carrier protein. Add 61 uL of stock antibody (720 ug/mL) to 10.939 mL of PBS, gently vertex. Immediately coat a 96 well microplate (Immulon 4 HBX) with 100 uL per well of the diluted capture antibody. Seal the plate and incubate it overnight in cold (4° C.). (PBS: 8.1 mM Na2HPO4, 1.5 mM KH2PO4, 137 mM NaCl, 2.7 mM KCl, pH 7.4, 0.2 um filtered).
Next day empty the wells and wash the wells three times, each time using 340 uL of wash buffer per well. (wash buffer: PBS, pH 7.4 containing 0.05% Tween-20). Prepare blocking buffer, 35 mL per plate. To prepare blocking buffer, add 0.35 grams of BSA and 1.75 grams of sucrose to 35 mL of PBS, pH 7.4, and mix the contents gently. Add 300 uL of blocking buffer to each well and incubate the plate for a minimum of 1 hour at room temperature. Empty the wells and wash wells three times, each time using 340 uL of wash buffer per well. […]

[2] = target: T1, BMPR-1A (ALK3) receptor extra cellular domain (Homo sapiens, UniProt P36894); assay: Radio-ligand receptor binding assay, competition with 125I-labeled TDF-1 for ALK-3; conditions: FIG. 1; cold ligand vs 125I-labeled TDF-1; read-out: ED50, displacing labeled TDF-1 from immobilized BMPR-1A receptor ECD
T1 construct: immobilized BMPR-1A receptor extra cellular domain (ECD)
T1 sequence (P36894 24-152 limits assumed, species assumed): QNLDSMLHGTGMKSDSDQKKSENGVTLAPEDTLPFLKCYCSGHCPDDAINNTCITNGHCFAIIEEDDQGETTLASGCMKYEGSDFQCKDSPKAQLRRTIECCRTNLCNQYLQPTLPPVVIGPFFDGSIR
Source text: General protocol: These assays are based on competition between ^125I-labeled TDF-1 (BMP-7 or OP-1) and candidate TDFRP compounds or unlabeled TDF-1 for binding to respective receptors (ALK-3, ALK-6 or BMPR-2). In brief, the procedure involves immobilization of receptor on 96 well Removawell plates, blocking the wells with 3% BSA in PBS and subsequently washing the wells. Increasing concentrations of unlabeled TDF-1 or TDFRP compounds or control (unlabeled TDF-1) prepared in binding buffer are then added. Incubate plate for 1 hour at room temperature, and then add a fixed amount of ^125I-labeled TDF-1 (250,000 to 350,000 cpm) to the wells and further incubate in cold (4° C.) for 20 hours. Aspirate the contents of the wells and wash the wells four times with a wash buffer, and count the receptor bound ^125I-labeled TDF-1 in an auto gamma counter. B. HK-2 Cell Culture and Determination of Cytokine Production

[3] = test system: unilateral ureteral obstruction; conditions: rats, administered systemically, UUO; cited from earlier work
[4] = test system: end stage renal failure in a remnant kidney; conditions: rats, administered systemically, remnant kidney (5/6 nephrectomy); cited from earlier work

EC50 ([1]; HK2 cells, TNF-alpha stimulus, read-out: ED50, lowering of ICAM-1 level) [nM]	EC50 [2] [nM]	Molecule	effect on level of ICAM-1 in HK2 cell medium [1]	prophylaxis in unilateral ureteral obstruction [3]	progression of end stage renal failure [4]
< 4000	–	CC(C)C[C@H](NC(=O)[C@@H](NC(=O)[C@H](CC(N)=O)NC(=O)[C@H](CO)NC(=O)[C@H](CO)NC(=O)[C@H](CC(=O)O)NC(=O)[C@H](CC(=O)O)NC(=O)[C@H](Cc1ccccc1)NC(=O)[C@H](Cc1ccc(O)cc1)NC(=O)[C@@H](N)CS)C(C)C)C(=O)N[C@@H](CS)C(=O)N[C@@H](CCCCN)C(=O)N[C@@H](CCCCN)C(=O)N[C@@H](Cc1ccc(O)cc1)C(=O)N[C@@H](CCCNC(=N)N)C(=O)N[C@@H](CO)C(=O)O [SEQ ID NO:45, CYFDDSSNVLCKKYRS] (H-CYFDDSSNVLCKKYRS-OH)	reduces the level of cellular inflammation marker ICAM-1; also recorded: lowers the level of ICAM-1 in a dose dependent manner	–	–
–	6.5	TDF-1: TDF-1 (BMP-7 or OP-1), bone morphogenetic protein-7; unlabeled control ligand in the binding and cell assays (protein) STGSKQRSQNRSKTPKNQEALRMANVAENSSSDQRQACKKHELYVSFRDLGWQDWIIAPEGYAAYYCEGECAFPLNSYMNATNHAIVQTLVHFINPETVPKPCCAPTQLNAISVLYFDDSSNVILKKYRNMVVRACGCH	lowers the level of ICAM-1 in a dose dependent manner	short term prophylaxis	halts the progression of end stage renal failure
